Data reported in the supplement of paper PMC9876800.

Tested on: peptide library, one residue held at a place counted from the S/T acceptor
Assay: relative phosphorylation of the sub-library (ratio to the mean residue at this position); higher = residue favoured
In short: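 Spots on streptavidin membranes were phosphorimaged and quantified by densitometry to measure phosphorylation of biotinylated degenerate peptide sub-libraries by purified recombinant kinases, human or orthologue constructs. The reactions ran in 384-well plates for 90 min under kinase-specific conditions, with peptides at 50 μM and 50 μM ATP spiked with γ-32P-ATP. Relative sub-library phosphorylation is the ratio to the mean residue at that position.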

Chain of TRPM6, construct: aa1699-end, human (Q9BX84 1699-2022, looked up): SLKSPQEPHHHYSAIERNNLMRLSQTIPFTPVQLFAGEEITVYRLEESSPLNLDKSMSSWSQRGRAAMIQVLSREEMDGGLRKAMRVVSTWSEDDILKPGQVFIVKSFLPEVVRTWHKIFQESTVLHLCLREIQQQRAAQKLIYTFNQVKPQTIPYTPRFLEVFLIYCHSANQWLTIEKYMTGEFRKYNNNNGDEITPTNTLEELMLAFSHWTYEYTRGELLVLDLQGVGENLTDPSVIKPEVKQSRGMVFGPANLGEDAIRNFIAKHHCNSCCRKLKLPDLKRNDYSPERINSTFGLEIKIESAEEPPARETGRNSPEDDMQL
Chain of TSSK6, construct: Full length, human (Q9BXA6 whole entry, looked up): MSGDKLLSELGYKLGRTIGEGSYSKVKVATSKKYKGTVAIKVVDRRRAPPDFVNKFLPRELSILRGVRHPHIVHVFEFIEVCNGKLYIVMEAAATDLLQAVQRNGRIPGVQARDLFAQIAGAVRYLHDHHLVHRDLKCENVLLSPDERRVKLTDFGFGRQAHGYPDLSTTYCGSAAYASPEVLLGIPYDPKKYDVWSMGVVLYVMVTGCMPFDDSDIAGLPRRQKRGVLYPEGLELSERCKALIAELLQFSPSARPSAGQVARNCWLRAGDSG
Chain of TTBK2, construct: aa1-450, human (Q6IQ55 1-450, looked up): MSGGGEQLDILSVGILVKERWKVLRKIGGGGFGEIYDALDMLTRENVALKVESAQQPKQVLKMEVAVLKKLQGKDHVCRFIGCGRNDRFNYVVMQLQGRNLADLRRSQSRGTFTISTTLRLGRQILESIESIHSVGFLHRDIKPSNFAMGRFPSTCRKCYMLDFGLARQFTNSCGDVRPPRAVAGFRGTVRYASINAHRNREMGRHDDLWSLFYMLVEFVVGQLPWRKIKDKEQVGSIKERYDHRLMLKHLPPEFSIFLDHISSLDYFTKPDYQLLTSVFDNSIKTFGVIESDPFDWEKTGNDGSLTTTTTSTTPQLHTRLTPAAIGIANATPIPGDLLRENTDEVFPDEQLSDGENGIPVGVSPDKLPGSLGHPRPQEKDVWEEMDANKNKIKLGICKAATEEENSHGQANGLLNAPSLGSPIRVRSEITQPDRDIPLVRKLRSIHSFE

RPS6KA5, construct: Full length, human (from UniProt O75582)
relative phosphorylation
Settings	at +1	at +2	at +3	at +4	at -1	at -2	at -3	at -4	at -5
A fixed	0.772	0.9	0.834	0.825	0.783	0.787	0.718	0.981	1.04
D fixed	0.723	2.19	1.3	1.63	0.877	0.316	0.294	0.639	0.65
E fixed	0.84	1.43	1.27	1.62	0.544	0.306	0.314	0.757	0.597
F fixed	1.44	0.986	1.12	0.863	0.767	0.4	0.352	0.778	0.91
G fixed	0.633	0.826	0.988	1	0.855	0.675	0.499	1.31	1.18
H fixed	1.04	1.59	1.35	1.23	1.16	1.06	1.18	1.18	1.03
I fixed	1.48	0.676	0.738	0.713	0.435	0.272	0.286	0.694	0.779
K fixed	0.616	0.436	0.674	0.588	1.57	1.8	1.18	1.34	1.2
L fixed	1.32	0.95	1.09	0.777	1.07	0.444	0.293	0.807	1.03
M fixed	1.49	0.781	0.981	0.788	1.04	0.445	0.39	1.07	0.962
N fixed	0.976	1.27	0.92	1.2	1.42	0.693	0.51	0.909	0.81
P fixed	0.292	0.581	0.98	1.5	1.63	0.367	0.588	1.1	0.923
Q fixed	1.19	0.734	0.989	1.12	1.15	0.843	0.666	0.915	0.774
R fixed	0.539	0.52	0.574	0.551	1.5	7.44	8.25	2.04	2.26
V fixed	1.21	0.81	0.714	0.721	0.466	0.318	0.282	0.663	0.775
W fixed	1.21	1.03	1.33	0.959	0.743	0.425	0.709	0.86	1.2
Y fixed	1.25	1.28	1.16	0.912	1	0.4	0.486	0.952	0.871
pThr fixed	1.64	1.88	1.62	2.88	0.451	0.325	0.406	0.697	0.68
pTyr fixed	1.68	1.25	1.53	1.57	0.898	0.392	0.539	0.698	0.747

TRPM6, construct: aa1699-end, human (from UniProt Q9BX84)
relative phosphorylation
Settings	at +1	at +2	at +3	at +4	at -1	at -2	at -3	at -4	at -5
A fixed	0.996	1.48	2.44	0.962	0.767	0.976	0.898	1.12	1.29
D fixed	0.396	0.307	0.4	0.983	0.669	0.615	0.898	1	1.12
E fixed	0.732	0.319	0.381	0.993	0.577	0.678	0.928	1.11	1.22
F fixed	0.824	1.31	0.776	0.816	0.504	1.03	0.829	0.991	1.02
G fixed	0.509	0.788	1.09	1.33	0.421	1.36	1.06	1.35	1.43
H fixed	1.08	0.995	0.992	1.01	1.24	0.768	1.08	0.911	1.11
I fixed	1.19	0.651	0.394	0.755	0.46	0.519	0.825	0.819	0.69
K fixed	2.27	0.855	2.27	1.27	4.26	0.678	1.18	0.887	1.12
L fixed	0.909	0.92	0.633	0.705	0.673	0.772	0.928	0.81	0.696
M fixed	0.816	1.38	0.708	0.88	0.576	1.17	0.838	0.914	0.767
N fixed	0.685	0.66	1.04	0.945	1.08	0.731	1.34	0.931	1
P fixed	0.376	2.29	0.963	1.3	0.964	1.74	1.5	1.35	0.904
Q fixed	1.36	0.956	0.827	1.27	0.892	0.773	1.14	1.08	1.07
R fixed	1.96	0.942	1.83	1.02	2.16	0.609	0.963	0.901	0.928
V fixed	0.903	0.562	0.539	0.805	0.51	0.609	0.737	0.789	0.747
W fixed	0.873	1.28	0.679	1.01	0.464	3.23	1.09	1.16	0.996
Y fixed	1.12	1.3	1.04	0.948	0.78	0.746	0.774	0.875	0.884
pThr fixed	0.646	0.552	0.592	1.04	0.7	0.837	1.1	1.2	1.21
pTyr fixed	1.15	0.701	0.772	0.915	0.729	0.729	0.959	1.02	0.79

TTBK2, construct: aa1-450, human (from UniProt Q6IQ55)
relative phosphorylation
Settings	at +1	at +2	at +3	at +4	at -1	at -2	at -3	at -4	at -5
A fixed	0.693	1.88	1.11	1.02	0.912	1.25	0.986	0.998	1.03
D fixed	0.298	0.221	0.968	0.919	0.604	1.91	1.38	1.34	0.944
E fixed	0.913	0.22	1.42	0.928	0.64	1.36	1.2	1.08	0.905
F fixed	1.38	0.907	1.07	0.85	0.951	0.802	0.844	1.11	1.08
G fixed	0.29	0.615	1.21	1.17	0.563	0.964	1.19	1.18	1.28
H fixed	0.878	1.48	1.09	0.983	1.05	0.867	1.18	0.996	1.03
I fixed	1.72	1.07	1.01	0.853	1.24	0.742	0.949	0.881	0.99
K fixed	0.739	0.913	0.707	0.996	1.32	0.67	0.884	1.12	1.15
L fixed	1.5	0.733	1.03	0.822	1.12	1.29	0.807	0.811	0.699
M fixed	1.52	1.38	1.1	1	1.14	0.853	0.972	0.859	0.827
N fixed	0.329	0.553	0.594	0.92	0.942	1.07	1.04	0.841	0.847
P fixed	0.115	0.31	0.495	1.24	0.805	1.35	0.834	0.837	0.981
Q fixed	1.03	0.57	1	0.858	0.741	0.994	0.879	0.818	0.771
R fixed	1.1	1.8	0.801	1.29	1.71	0.743	1.13	1.06	1.41
V fixed	1.42	0.908	1.07	0.75	1.12	0.81	0.75	0.898	0.937
W fixed	1.45	1.91	1.1	1.4	0.93	0.69	0.885	1.08	0.946
Y fixed	1.63	1.54	1.23	0.998	1.22	0.643	1.09	1.1	1.18
pThr fixed	0.576	0.426	0.831	0.97	0.7	2.61	1.78	1.55	1.02
pTyr fixed	1.7	5.77	1.16	0.752	1.02	2.59	2.62	1.84	1.77

TSSK6, construct: Full length, human (from UniProt Q9BXA6)
relative phosphorylation
Settings	at +1	at +2	at +3	at +4	at -1	at -2	at -3	at -4	at -5
A fixed	0.866	0.53	0.939	0.483	1.08	1.85	1.52	1.26	2.13
D fixed	0.814	0.32	1.61	0.385	0.442	0.203	0.21	0.354	0.243
E fixed	0.876	0.568	0.702	0.265	0.603	0.328	0.335	0.562	0.234
F fixed	0.806	1.16	1.03	1.5	0.537	0.586	0.45	0.532	0.466
G fixed	0.426	0.258	0.513	0.584	0.604	0.649	0.965	1.22	0.542
H fixed	1.23	3.4	1.89	0.696	0.82	0.868	0.848	1.32	0.607
I fixed	0.765	1.51	0.506	2.46	0.579	0.891	0.724	0.673	1.45
K fixed	1.45	0.403	1.09	0.543	2.1	3.12	2.57	2.67	0.911
L fixed	0.925	1.38	0.645	3.38	0.657	0.416	0.61	0.721	1.71
M fixed	1.16	1.69	0.825	1.68	0.874	0.629	0.779	0.968	0.703
N fixed	1.38	0.574	1.94	0.653	0.876	0.87	0.72	0.758	0.508
P fixed	0.155	0.299	0.204	0.591	1.83	0.446	1.35	0.544	1.46
Q fixed	1.56	0.847	1.02	0.605	1.35	1.23	0.962	0.943	0.999
R fixed	1.83	0.499	1.25	0.506	2.4	2.11	3.07	2.22	1.93
V fixed	0.932	0.96	0.59	1.42	0.804	1.55	0.773	0.938	1.73
W fixed	0.85	1.08	1.27	0.677	0.662	0.518	0.571	0.641	0.469
Y fixed	0.97	1.52	0.981	0.582	0.778	0.747	0.555	0.685	0.902
pThr fixed	0.547	0.29	0.216	0.269	0.566	0.279	0.724	0.748	0.793
pTyr fixed	0.534	0.459	0.32	0.268	0.417	0.427	0.519	0.447	0.752
